Results as given in article PMC4775432 (2015).

Target: T1, KRAS G12D peptide on HLA-A*11:01 (human)
T1 peptide: VVGADGVGK
Assay: cytokine release

B1: TRAV4-4*01/BV12-2*01 (TCR)
alpha TRAV4-4/DV10*01 49*01 CDR3: CAADSSNTGYQNFYF
beta TRBV12-2*01 1-2*01 CDR3: CASSLTDPLDSDYTF
Does B1 bind?
Result: no recognition
